Source: patent publication US20040185113A1, “Fine inorganic particles having drug included therein, method for preparation thereof and pharmaceutical preparation comprising fine inorganic particles having drug included therein” (priority 2001, published 2004)

Experiment: G-CSF release test and stability of G-CSF in buffer solution at room temperature
Type: physicochemical
Conditions: 1% BSA/Tris-HCl (pH 7.2), ELISA, FIG. 4
Description: Six hundred fifty μl of 5M CaCl2 was admixed with 250 μl of 500 μg/ml G-CSF with stirring. Then 2.5 ml of 1M Na2CO3 was added and stirred for 10 minutes to prepare CaCO3 particles. Five ml of H2O was added to the particles, and the mixture was centrifuged at 2,000 rpm for 5 min to remove the supernatant. To the resultant precipitate, 12.5 ml of H2O was added, and 1 ml of the mixture was taken into a 2.0 ml test tube. The test tube and content was centrifuged at 2,000 rpm for 5 min to remove the supernatant which was used for ELISA. To the resultant precipitate, 1 ml of 1% BSA/Tris—HCl (pH 7.2) was added and shaken at room temperature. The mixture was centrifuged every 24 hours at 2,000 rpm for 5 min to collect the supernatant and to the resultant precipitate 1 ml of 1% BSA/Tris—HCl (pH 7.2) was added again, and this operation was continued for 7 days. The last precipitate was dissolved with hydrochloric acid and used for ELISA. G-CSF was assayed using ELISA Kit manufactured by IBL Co. and the total (cumulative) amount of G-CSF released from the G-CSF-encapsulating CaCO3 preparation was shown. […] A part of the mixture was collected every 24 hours, and the amount of G-CSF was determined by ELISA to examine the stability of G-CSF at room temperature.

B1: free G-CSF: granulocyte colony-stimulating factor (Chugai Pharmaceutical) in 1% BSA/Tris-HCl solution, control (protein, UniProt P09919 31-207, looked up)
Granulocyte …: TPLGPASSLPQSFLLKCLEQVRKIQGDGAALQEKLVSECATYKLCHPEELVLLGHSLGIPWAPLSSCPSQALQLAGCLSQLHSGLFLYQGLLQALEGISPELGPTLDTLQLDVADFATTIWQQMEELGMAPALQPTQGAMPAFASAFQRRAGGVLVASHLQSFLEVSYRVLRHLAQP
With B1 the “stability of G-CSF” value was “unstableness”.
